Data published in patent publication US20080274100A1 (published 2008).
Residue numbers refer to the chain shown, from its start.

B1: Y1 scFv (scFv)
chain: EVQLVESGGGVVRPGGSLRLSCAASGFTFDDYGMSWVRQAPGKGLEWVSGINWNGGSTGYADSVKGRFTISRDNAKNSLYLQMNSLRAEDTAVYYCARMRAPVIWGQGTLVTVSRGGGGSGGGGSGGGGSSELTQDPAVSVALGQTVRITCQGDSLRSYYASWYQQKPGQAPVLVIYGKNNRPSGIPDRFSGSSSGNTASLTITGAQAEDEADYYCNSRDSSGNHVVFGGGTKLTVLGAAAEQKLISEEDLNGAA
B2: D1 scFv (scFv)
scFv: EVQLVESGGGVVRPGGSLRLSCAASGFTFDLNPKVKHMWVRQAPGKGLEWVSGINWNGGSTGYADSVKGRFTISRDNAKNSLYLQMNSLRAEDTAVYYCARLRSPFGWGQGTLVTVSRGGGGSGGGGSGGGGSSELTQDPAVSVALGQTVRITCQGDSLRSYYASWYQQKPGQAPVLVIYGKNNRPSGIPDRFSGSSSGNTASLTITGAQAEDEADYYCNSRDSSGNHVVFGGGTKLTVLGAAAEQKLISEEDLNGAA
B3: S11 scFv (scFv)
scFv: B2 scFv with S104Y, G107F
notes: also called scFv S11
B4: S1 scFv (scFv)
scFv: B2 scFv with S104P, G107L

Key:
[1] = target: T1, GPIb on human platelets (human, UniProt P07359 17-652); test: cell-based or functional assay
[2] = target: T2, glycocalicin (UniProt P07359 17-506); test: SPR (BIAcore 3000), glycocalicin immobilized on CM5 chip
T2 construct: domain: glycocalicin (the outer membrane portion derived from GPIb); also called purified glycocalicin; purified GPIbα

[3] = target: T1, GPIb on human platelets; test: FACS on human platelets
[4] = target: T3, platelet GPIb, guinea pig (guinea pig platelets) (guinea pig); test: FACS on guinea pig platelets
T3 construct: whole, on cells; also called guinea pig derived platelets

[5] = target: T4, human CCR5 on transfected L1.2 cells (human, UniProt P51681 1-352); test: flow cytometry, L1.2 cells transfected with human CCR5
T4 construct: whole, on cells

[6] = target: T5, CXCR4 point mutant Tyr-21 to alanine (UniProt P61073 1-352); test: epitope mapping with tyrosine-to-alanine point mutants of CXCR4
T5 construct: also called CXCR4 Y21A
T5 sequence (P61073 other isoform, or with tags, fused parts or gaps mutant limits assumed): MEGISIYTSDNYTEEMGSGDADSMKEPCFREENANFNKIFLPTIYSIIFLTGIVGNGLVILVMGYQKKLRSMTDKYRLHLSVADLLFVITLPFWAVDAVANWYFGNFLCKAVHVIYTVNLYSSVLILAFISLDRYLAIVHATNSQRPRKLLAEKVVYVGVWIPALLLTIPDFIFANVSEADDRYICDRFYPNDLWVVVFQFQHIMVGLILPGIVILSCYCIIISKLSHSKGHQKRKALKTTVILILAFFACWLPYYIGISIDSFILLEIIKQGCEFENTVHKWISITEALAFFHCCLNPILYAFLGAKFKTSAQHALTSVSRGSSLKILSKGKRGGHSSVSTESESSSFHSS

T1 sequence (P07359 17-652): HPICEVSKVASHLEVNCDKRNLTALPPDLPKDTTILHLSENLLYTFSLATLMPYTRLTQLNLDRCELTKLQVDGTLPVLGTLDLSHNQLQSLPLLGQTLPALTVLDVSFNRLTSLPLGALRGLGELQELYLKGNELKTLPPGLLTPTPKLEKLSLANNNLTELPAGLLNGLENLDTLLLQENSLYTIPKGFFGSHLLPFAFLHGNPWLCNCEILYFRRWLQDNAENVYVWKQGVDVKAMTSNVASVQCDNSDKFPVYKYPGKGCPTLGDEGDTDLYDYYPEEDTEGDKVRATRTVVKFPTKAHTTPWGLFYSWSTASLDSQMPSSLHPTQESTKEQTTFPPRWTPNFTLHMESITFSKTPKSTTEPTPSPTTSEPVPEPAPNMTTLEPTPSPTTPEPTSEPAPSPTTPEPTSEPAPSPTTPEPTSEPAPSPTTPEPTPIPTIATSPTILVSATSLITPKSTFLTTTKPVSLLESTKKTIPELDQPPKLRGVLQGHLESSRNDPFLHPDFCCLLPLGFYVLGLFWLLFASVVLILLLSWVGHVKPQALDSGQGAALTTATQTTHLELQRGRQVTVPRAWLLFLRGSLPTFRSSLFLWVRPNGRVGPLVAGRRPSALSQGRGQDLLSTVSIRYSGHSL
T2 sequence (P07359 17-506 limits assumed): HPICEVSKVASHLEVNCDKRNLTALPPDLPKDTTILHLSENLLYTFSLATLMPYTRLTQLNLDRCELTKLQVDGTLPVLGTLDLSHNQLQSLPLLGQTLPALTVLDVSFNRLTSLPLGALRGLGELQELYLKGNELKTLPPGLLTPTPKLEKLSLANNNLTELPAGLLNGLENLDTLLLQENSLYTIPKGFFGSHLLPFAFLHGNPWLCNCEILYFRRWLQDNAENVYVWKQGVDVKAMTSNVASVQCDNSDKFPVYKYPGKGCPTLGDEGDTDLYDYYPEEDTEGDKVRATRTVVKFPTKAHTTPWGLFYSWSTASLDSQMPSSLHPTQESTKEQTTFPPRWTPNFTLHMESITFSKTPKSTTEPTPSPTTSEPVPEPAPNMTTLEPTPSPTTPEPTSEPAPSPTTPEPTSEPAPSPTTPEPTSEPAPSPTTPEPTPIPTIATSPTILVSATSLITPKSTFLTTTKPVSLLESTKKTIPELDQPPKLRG
T4 sequence (P51681 whole entry): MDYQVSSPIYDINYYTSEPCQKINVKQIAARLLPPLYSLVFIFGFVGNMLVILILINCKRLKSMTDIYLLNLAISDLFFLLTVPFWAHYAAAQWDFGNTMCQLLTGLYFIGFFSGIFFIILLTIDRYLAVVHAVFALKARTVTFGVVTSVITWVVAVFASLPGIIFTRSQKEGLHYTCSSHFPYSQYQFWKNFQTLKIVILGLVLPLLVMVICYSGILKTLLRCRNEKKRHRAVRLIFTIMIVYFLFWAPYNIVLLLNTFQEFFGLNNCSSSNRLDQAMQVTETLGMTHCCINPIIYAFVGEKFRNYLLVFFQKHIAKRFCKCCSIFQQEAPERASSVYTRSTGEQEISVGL

| Binder | inhibition of ristocetin-induced, vWF-dependent platelet aggregation in washed platelets (IC50) [1] [nM] | Kd [2] [nM] | koff [2] [s⁻¹] | fold binding capacity relative to Y1 [3] [fold] | fold binding capacity relative to Y1 [4] [fold] | binding result [5] | binding result [6] |
| --- | --- | --- | --- | --- | --- | --- | --- |
| B1 | 800 | 450 | 0.12 | – | – | – | – |
| B2 | – | – | – | ~25 | ~25 | – | – |
| B3 | – | – | – | ~25 | ~25 | binds | no binding |
| B4 | – | – | – | – | ~25 | – | – |
